# Measurements taken from patent US20240358731A1, “SUMO PATHWAY AS AN OXYGEN SENSOR RELEVANT TO THE PATHOPHYSIOLOGY OF PULMONARY ARTERY HYPERTENSION AND CARDIAC ARRHYTHMIA” (Northeastern University, priority 2023, published 2024).
# B1: SENP1: purified deSUMOylating enzyme (SUMO specific protease) introduced via the recording pipette or expressed (protein, UniProt Q9P0U3 1-644, looked up)
# Sentrin-specific protease 1: MDDIADRMRMDAGEVTLVNHNSVFKTHLLPQTGFPEDQLSLSDQQILSSRQGHLDRSFTCSTRSAAYNPSYYSDNPSSDSFLGSGDLRTFGQSANGQWRNSTPSSSSSLQKSRNSRSLYLETRKTSSGLSNSFAGKSNHHCHVSAYEKSFPIKPVPSPSWSGSCRRSLLSPKKTQRRHVSTAEETVQEEEREIYRQLLQMVTGKQFTIAKPTTHFPLHLSRCLSSSKNTLKDSLFKNGNSCASQIIGSDTSSSGSASILTNQEQLSHSVYSLSSYTPDVAFGSKDSGTLHHPHHHHSVPHQPDNLAASNTQSEGSDSVILLKVKDSQTPTPSSTFFQAELWIKELTSVYDSRARERLRQIEEQKALALQLQNQRLQEREHSVHDSVELHLRVPLEKEIPVTVVQETQKKGHKLTDSEDEFPEITEEMEKEIKNVFRNGNQDEVLSEAFRLTITRKDIQTLNHLNWLNDEIINFYMNMLMERSKEKGLPSVHAFNTFFFTKLKTAGYQAVKRWTKKVDVFSVDILLVPIHLGVHWCLAVVDFRKKNITYYDSMGGINNEACRILLQYLKQESIDKKRKEFDTNGWQLFSKKSQEIPQQMNGSDCGMFACKYADCITKDRPINFTQQHMPYFRKRMVWEILHRKLL
# Target: T1, Kir2.4 (Homo sapiens, UniProt Q9UNX9)
# T1 sequence (Q9UNX9 1-436): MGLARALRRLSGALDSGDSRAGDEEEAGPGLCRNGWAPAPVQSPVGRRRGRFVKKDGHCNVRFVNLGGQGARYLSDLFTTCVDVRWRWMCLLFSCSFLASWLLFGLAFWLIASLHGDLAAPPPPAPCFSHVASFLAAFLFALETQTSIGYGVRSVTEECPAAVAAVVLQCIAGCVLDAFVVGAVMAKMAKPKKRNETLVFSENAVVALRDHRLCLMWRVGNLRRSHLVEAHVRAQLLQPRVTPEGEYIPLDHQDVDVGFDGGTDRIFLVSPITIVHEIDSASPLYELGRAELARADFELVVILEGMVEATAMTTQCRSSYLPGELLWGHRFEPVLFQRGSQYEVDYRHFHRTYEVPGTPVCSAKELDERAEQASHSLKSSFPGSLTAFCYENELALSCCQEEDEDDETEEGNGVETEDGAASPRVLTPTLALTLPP
# Test: Two-electrode voltage-clamp of Kir2.4 currents in Xenopus oocytes
# Assay type: cell-based
# Set-up: expressed in transfected cells; host or cells: Xenopus oocytes (RNA injection)
# Details: expression of SENP1
# Source text: FIG. 5A discloses SEQ ID NOS 6-9, respectively, in order of appearance. […] SENP1 increases the current. […] SUMO sensitivity is transferred to Kir2.3 when the site in Kir2.1 is recreated by mutagenesis (Kir2.3-N25D).
# Co-expressed SUMO decreases Kir2.4 currents in Xenopus oocytes. Using the SUMOplot algorithm to assess potential SUMOylation sites based on the canonical motif ψ-K-X-E/D, we identified the high probability SUMO site V-K54-K-D (SEQ ID NO: 4) in the N-terminal sequence of Kir2.4. SUMO covalently modifies Kir2.4 at K54 (FIG. 5) and tested the idea using two-electrode voltage-clamp (TEVC), a sensitive assay to study the regulation of Kir channels. Kir2.4 currents, assessed at −80 mV in a high K^+ (96 mM) bath solution, decreased in a dose-dependent manner with co-expression of SUMO1 (FIG. 5). Co-injection of 5 ng of human SUMO1 RNA decreased Kir2.4 currents by ˜50%. In contrast, expression of SENP1 increased Kir2.4 by ˜50%. […] The analogous sequence in Kir2.2 and Kir2.3 is V-K-K-N(SEQ ID NO: 5), which lacks the terminal aspartic acid, reduced the probability of SUMOylation from 0.93 to 0.31. Consistent with this, Kir2.3 currents were insensitive to SUMO1 and SENP1. […] This last result is consistent with a protein-protein interaction between the channel and SUMO1.
molecule,measurement,value
B1,increase of Kir2.4 currents,~50%
